Laboratory results published in patent US20170362301A1 (Janssen / Centocor, published 2017).
Values belong to the binder of their own block, whether it stands above or below them.

Experiments:
[1] = target: EGFR on cells (A431, NCI-H292, NCI-H322, NCI-H441) (human, UniProt P00533 25-1210); test: cell-based or functional assay
[2] = target: c-Met on cells (NCI-H441, NCI-H292, U87-MG) (human, UniProt P08581 25-1390); test: cell-based or functional assay
[3] = target: T1, EGFR (form in the assay not stated) (human, UniProt P00533 25-645, limits assumed); test: ELISA, NEM conjugate 10 nM (the reference itself)
[4] = target: T1, EGFR (form in the assay not stated); test: ELISA, NEM conjugate 100 nM (the reference itself)
[5] = target: T1, EGFR (form in the assay not stated); test: ELISA, NEM conjugate 500 nM (the reference itself)

c-Met on cells (NCI-H441, NCI-H292, U87-MG), sequence (P08581 other isoform, or with tags, fused parts or gaps limits assumed): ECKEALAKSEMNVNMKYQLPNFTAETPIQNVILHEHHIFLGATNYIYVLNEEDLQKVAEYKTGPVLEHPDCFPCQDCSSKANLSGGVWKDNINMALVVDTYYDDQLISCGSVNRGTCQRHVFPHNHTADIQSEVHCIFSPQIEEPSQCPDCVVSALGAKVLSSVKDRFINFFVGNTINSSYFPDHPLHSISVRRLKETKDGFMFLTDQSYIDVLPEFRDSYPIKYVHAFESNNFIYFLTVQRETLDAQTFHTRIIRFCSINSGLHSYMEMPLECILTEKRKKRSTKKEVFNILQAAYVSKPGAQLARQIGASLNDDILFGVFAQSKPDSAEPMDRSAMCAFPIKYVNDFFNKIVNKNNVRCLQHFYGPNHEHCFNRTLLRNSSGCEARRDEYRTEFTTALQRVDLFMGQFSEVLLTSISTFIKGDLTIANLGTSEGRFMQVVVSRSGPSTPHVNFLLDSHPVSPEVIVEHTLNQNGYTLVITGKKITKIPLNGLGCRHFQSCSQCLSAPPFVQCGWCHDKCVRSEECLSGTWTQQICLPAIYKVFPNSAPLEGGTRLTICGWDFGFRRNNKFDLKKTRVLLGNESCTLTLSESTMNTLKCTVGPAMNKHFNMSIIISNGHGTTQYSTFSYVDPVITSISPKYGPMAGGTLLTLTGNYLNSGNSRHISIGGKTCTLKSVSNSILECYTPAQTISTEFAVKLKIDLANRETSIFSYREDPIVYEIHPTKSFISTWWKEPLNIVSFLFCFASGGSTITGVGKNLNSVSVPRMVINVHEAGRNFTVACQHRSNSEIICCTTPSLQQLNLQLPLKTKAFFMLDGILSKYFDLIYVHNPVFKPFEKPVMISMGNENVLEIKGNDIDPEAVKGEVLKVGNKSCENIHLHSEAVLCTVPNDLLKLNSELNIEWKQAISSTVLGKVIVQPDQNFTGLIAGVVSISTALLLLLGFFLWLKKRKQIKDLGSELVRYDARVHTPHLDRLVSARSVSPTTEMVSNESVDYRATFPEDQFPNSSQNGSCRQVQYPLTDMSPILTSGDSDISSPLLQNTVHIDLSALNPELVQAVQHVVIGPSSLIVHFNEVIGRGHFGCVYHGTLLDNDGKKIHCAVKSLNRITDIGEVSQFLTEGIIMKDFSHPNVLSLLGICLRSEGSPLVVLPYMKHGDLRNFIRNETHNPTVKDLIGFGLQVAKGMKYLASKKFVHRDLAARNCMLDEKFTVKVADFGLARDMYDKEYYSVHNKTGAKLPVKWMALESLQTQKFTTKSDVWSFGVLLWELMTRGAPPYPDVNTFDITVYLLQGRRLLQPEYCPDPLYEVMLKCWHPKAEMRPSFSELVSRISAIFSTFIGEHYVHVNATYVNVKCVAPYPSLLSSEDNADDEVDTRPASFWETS

fold decrease of IC50 for inhibition of EGFR phosphorylation in NCI-H441 cells against monospecific P53A1R5-17v2 [1]: 30 fold
B1: ECB5 (designed binder)
chain: MLPAPKNLVVSEVTEDSARLSWADPHGFYDSFLIQYQESEKVGEAIVLTVPGSERSYDLTGLKPGTEYTVSIYGVHNVYKDTNMRGLPLSAIFTTGGGGSGGGGSGGGGSGGGGSMLPAPKNLVVSRVTEDSARLSWTAPDAAFDSFWIRYFEFLGSGEAIVLTVPGSERSYDLTGLKPGTEYVVNIMGVKGGKISPPLSAIFTT

c-Met phosphorylation in NCI-H292 cells IC50 [2]: 610 nM
B2: P114AR5P74-A5 (designed binder)
chain: LPAPKNLVVSRVTEDSARLSWTAPDAAFDSFWIRYDEVVVGGEAIVLTVPGSERSYDLTGLKPGTEYYVNILGVKGGSISVPLSAIFTT

binding ratio vs parent P54AR4-83v2 [3]: 1 ratio | binding ratio vs parent P54AR4-83v2 [4]: 1 ratio | binding ratio vs parent P54AR4-83v2 [5]: 1 ratio
B3: 83v2His6-cys, NEM conjugate (designed binder)
chain: MLPAPKNLVVSEVTEDSARLSWDDPWAFYESFLIQYQESEKVGEAIVLTVPGSERSYDLTGLKPGTEYTVSIYGVHNVYKDTNMRGLPLSAIFTTGGHHHHHHC
modifications: NEM on the C-terminal Cys
notes: also called P54AR4-83v2-cys; P54AR4-83v2 parent
